According to the supplement of paper PMC10567573:

B1: CCNC (parent)
chain: QSSHYLQWILDKQDLLKERQKDLK

Variants of: B1
Assay: protein stability index of a GFP-peptide fusion (GPS, HEK-293T) (PSI 1-6); higher = more stable
Conditions: c terminus: a fixed tail appended
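Also: lentivirally expressed fusions sorted by FACS into six bins by GFP to DsRed ratio, PSI derived from sequencing read proportions per bin multiplied by bin number.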

| Variant | protein stability index |
| --- | --- |
| QSSHYLQWILKKQDLLKERQKDLK [D11K] | 3.09 |
| QSSHYLQWILLKQDLLKERQKDLK [D11L] | 2.72 |
| QSSHYLQWILMKQDLLKERQKDLK [D11M] | 2.36 |
| QSSHYLQWILNKQDLLKERQKDLK [D11N] | 2.83 |
| QSSHYLQWILPKQDLLKERQKDLK [D11P] | 3.13 |
| QSSHYLQWILQKQDLLKERQKDLK [D11Q] | 3.39 |
| QSSHYLQWILRKQDLLKERQKDLK [D11R] | 2.1 |
| QSSHYLQWILSKQDLLKERQKDLK [D11S] | 3 |
| QSSHYLQWILTKQDLLKERQKDLK [D11T] | 2.58 |
| QSSHYLQWILVKQDLLKERQKDLK [D11V] | 2.86 |
| QSSHYLQWILWKQDLLKERQKDLK [D11W] | 2.38 |
| QSSHYLQWILYKQDLLKERQKDLK [D11Y] | 3.17 |
| QSSHYLQWILDAQDLLKERQKDLK [K12A] | 2.73 |
| QSSHYLQWILDCQDLLKERQKDLK [K12C] | 2.46 |
| QSSHYLQWILDDQDLLKERQKDLK [K12D] | 4.21 |
| QSSHYLQWILDEQDLLKERQKDLK [K12E] | 3.66 |
| QSSHYLQWILDFQDLLKERQKDLK [K12F] | 2.25 |
| QSSHYLQWILDGQDLLKERQKDLK [K12G] | 2.41 |
| QSSHYLQWILDHQDLLKERQKDLK [K12H] | 2.83 |
| QSSHYLQWILDIQDLLKERQKDLK [K12I] | 1.71 |
| QSSHYLQWILDLQDLLKERQKDLK [K12L] | 1.72 |
| QSSHYLQWILDMQDLLKERQKDLK [K12M] | 1.92 |
| QSSHYLQWILDNQDLLKERQKDLK [K12N] | 2.79 |
| QSSHYLQWILDPQDLLKERQKDLK [K12P] | 3.29 |

| Variant | protein stability index |
| --- | --- |
| QSSHYLQWILDQQDLLKERQKDLK [K12Q] | 3.25 |
| QSSHYLQWILDSQDLLKERQKDLK [K12S] | 1.98 |
| QSSHYLQWILDTQDLLKERQKDLK [K12T] | 2.01 |
| QSSHYLQWILDVQDLLKERQKDLK [K12V] | 2.34 |
| QSSHYLQWILDWQDLLKERQKDLK [K12W] | 1.52 |
| QSSHYLQWILDYQDLLKERQKDLK [K12Y] | 2.75 |
| QSSHYLQWILDKADLLKERQKDLK [Q13A] | 2.74 |
| QSSHYLQWILDKCDLLKERQKDLK [Q13C] | 3.1 |
| QSSHYLQWILDKDDLLKERQKDLK [Q13D] | 3.82 |
| QSSHYLQWILDKEDLLKERQKDLK [Q13E] | 2.71 |
| QSSHYLQWILDKFDLLKERQKDLK [Q13F] | 2.34 |
| QSSHYLQWILDKGDLLKERQKDLK [Q13G] | 2.94 |
| QSSHYLQWILDKHDLLKERQKDLK [Q13H] | 2.5 |
| QSSHYLQWILDKIDLLKERQKDLK [Q13I] | 2.59 |
| QSSHYLQWILDKKDLLKERQKDLK [Q13K] | 3.49 |
| QSSHYLQWILDKLDLLKERQKDLK [Q13L] | 1.85 |
| QSSHYLQWILDKMDLLKERQKDLK [Q13M] | 2 |
| QSSHYLQWILDKNDLLKERQKDLK [Q13N] | 3.74 |
| QSSHYLQWILDKPDLLKERQKDLK [Q13P] | 3.36 |
| QSSHYLQWILDKRDLLKERQKDLK [Q13R] | 2.6 |
| QSSHYLQWILDKSDLLKERQKDLK [Q13S] | 2.91 |
| QSSHYLQWILDKTDLLKERQKDLK [Q13T] | 2.7 |
| QSSHYLQWILDKVDLLKERQKDLK [Q13V] | 2.76 |
| QSSHYLQWILDKWDLLKERQKDLK [Q13W] | 2.36 |

| Variant | protein stability index |
| --- | --- |
| QSSHYLQWILDKYDLLKERQKDLK [Q13Y] | 2.42 |
| QSSHYLQWILDKQALLKERQKDLK [D14A] | 2.58 |
| QSSHYLQWILDKQCLLKERQKDLK [D14C] | 2.79 |
| QSSHYLQWILDKQELLKERQKDLK [D14E] | 4.29 |
| QSSHYLQWILDKQFLLKERQKDLK [D14F] | 2.22 |
| QSSHYLQWILDKQGLLKERQKDLK [D14G] | 3.8 |
| QSSHYLQWILDKQHLLKERQKDLK [D14H] | 2.83 |
| QSSHYLQWILDKQILLKERQKDLK [D14I] | 2.55 |
| QSSHYLQWILDKQKLLKERQKDLK [D14K] | 3.65 |
| QSSHYLQWILDKQLLLKERQKDLK [D14L] | 2.8 |
| QSSHYLQWILDKQMLLKERQKDLK [D14M] | 2.97 |
| QSSHYLQWILDKQNLLKERQKDLK [D14N] | 3.39 |
| QSSHYLQWILDKQPLLKERQKDLK [D14P] | 3.17 |
| QSSHYLQWILDKQQLLKERQKDLK [D14Q] | 3.48 |
| QSSHYLQWILDKQRLLKERQKDLK [D14R] | 2.7 |
| QSSHYLQWILDKQSLLKERQKDLK [D14S] | 2.55 |
| QSSHYLQWILDKQTLLKERQKDLK [D14T] | 3.36 |
| QSSHYLQWILDKQVLLKERQKDLK [D14V] | 2.9 |
| QSSHYLQWILDKQWLLKERQKDLK [D14W] | 2.73 |
| QSSHYLQWILDKQYLLKERQKDLK [D14Y] | 2.61 |
| QSSHYLQWILDKQDALKERQKDLK [L15A] | 4.19 |
| QSSHYLQWILDKQDCLKERQKDLK [L15C] | 3.21 |
| QSSHYLQWILDKQDDLKERQKDLK [L15D] | 3.47 |
| QSSHYLQWILDKQDELKERQKDLK [L15E] | 4.08 |

| Variant | protein stability index |
| --- | --- |
| QSSHYLQWILDKQDFLKERQKDLK [L15F] | 2.54 |
| QSSHYLQWILDKQDGLKERQKDLK [L15G] | 3.44 |
| QSSHYLQWILDKQDHLKERQKDLK [L15H] | 3.72 |
| QSSHYLQWILDKQDILKERQKDLK [L15I] | 3.11 |
| QSSHYLQWILDKQDKLKERQKDLK [L15K] | 3.66 |
| QSSHYLQWILDKQDNLKERQKDLK [L15N] | 3.33 |
| QSSHYLQWILDKQDPLKERQKDLK [L15P] | 3.93 |
| QSSHYLQWILDKQDQLKERQKDLK [L15Q] | 3.94 |
| QSSHYLQWILDKQDRLKERQKDLK [L15R] | 2.78 |
| QSSHYLQWILDKQDSLKERQKDLK [L15S] | 3.44 |
| QSSHYLQWILDKQDTLKERQKDLK [L15T] | 3.72 |
| QSSHYLQWILDKQDVLKERQKDLK [L15V] | 3.11 |
| QSSHYLQWILDKQDWLKERQKDLK [L15W] | 3.37 |
| QSSHYLQWILDKQDYLKERQKDLK [L15Y] | 2.8 |
| QSSHYLQWILDKQDLAKERQKDLK [L16A] | 3.74 |
| QSSHYLQWILDKQDLCKERQKDLK [L16C] | 3.52 |
| QSSHYLQWILDKQDLDKERQKDLK [L16D] | 3.58 |
| QSSHYLQWILDKQDLEKERQKDLK [L16E] | 4 |
| QSSHYLQWILDKQDLFKERQKDLK [L16F] | 3.23 |
| QSSHYLQWILDKQDLGKERQKDLK [L16G] | 3.43 |
| QSSHYLQWILDKQDLHKERQKDLK [L16H] | 4 |
| QSSHYLQWILDKQDLIKERQKDLK [L16I] | 3.64 |
